Measurements from paper PMC5233953.

What was measured:
[1] = molecular target: FrpD_(43-271) protein (Neisseria meningitidis); assay: cross-linking; FrpD-FrpC_(1-414) complex (1 mg/ml, 14 μM) with a 1:1 mixture of d0/d4 BS2G, 30 min; 70-kDa band digested with trypsin, nano-ESI-FTICR mass spectrometry
[2] = molecular target: FrpD_(43-271) protein (Neisseria meningitidis); assay: SEC; Superdex 200 HR column; free proteins and an equimolar mixture of purified FrpD and FrpC_(1-414)
[3] = molecular target: FrpD_(43-271) protein (Neisseria meningitidis); assay: SAXS; beamline X33 EMBL, room temperature; FrpD 1–9 mg/ml, FrpD-FrpC_(1-414) complex 1–5 mg/ml; molecular mass from the Porod volume

Measured: stoichiometry N

B1: FrpC_(1-414), the N-terminal domain of FrpC (domain or fragment)
chain: MNEGEVVLTPEQIQTLRGYASRGDTYGGWRYLANLGDRYADNAAAIVGKDTNLNGLNLWMKKGVENLWDDTVGKKTRLEKFDRVALQHFSQYVDLINKNNGRLPNTSEIERSYYKAVTYHGVSSSAAIDLVINRSLPDMADGYWALGLGIEAERIHNEQAVNNPNGSERDNRKQLISALDKGFDGSFKEKHFTFLQSVMMDLTKLGVEYTIDGWQKIGGWGNGIINDLYKSVVKREWTGIFEIVNNNIKQGNEAFKNEINSLVHDMKAAGKEFGDDLNTQWNNLTQAAEIIYNDIVDNTSQGIEKGVKAIKELSEKMKNAASDLADGSAEKAKQVVEDLAQAAKEAYENAKSTAEKAAQAAREFFKGLPSFKDLAEKFRDLFPNPEGWIDDGHQCFAPWVKETKKRNGKYHVYD
1: all assays above
